From paper PMC9954413 (Cancers, 2023)
Where a chain is given by its changes, count along the chain named. In names and notes the source's numbering stands.

B1: Arkadia (RNF111) LONG, residues 876-994 (Ark LONG, 119 aa) (domain or fragment, human, UniProt Q6ZNA4 876-994, looked up)
chain: FRGNFEELIHLEERLGNVNRGASQGTIERCTYPHKYKKVTTDWFSQRKLHCKQDGEEGTEEDTEEKCTICLSILEEGEDVRRLPCMHLFHQVCVDQWLITNKKCPICRVDIEAQLPSES
notes: human Arkadia (RNF111), residues 876-994, 119 aa; RING domain with the non-RING elements; also called wt Ark LONG; source: expressed and purified as described elsewhere [31]
B2: Arkadia LONG R983A (domain or fragment)
chain: B1 chain with R108A
notes: human Arkadia (RNF111), residues 876-994, with R983A; also called Ark LONG R983A; source: site-directed mutagenesis; expressed and purified as the wild type
B3: Arkadia LONG R983K (domain or fragment)
chain: B1 chain with R108K
notes: human Arkadia (RNF111), residues 876-994, with R983K; also called Ark LONG R983K; source: site-directed mutagenesis; expressed and purified as the wild type
B4: Arkadia (RNF111) RING, residues 927-994 (Ark RING, 68 aa) (domain or fragment, human, UniProt Q6ZNA4 927-994, looked up)
chain: KQDGEEGTEEDTEEKCTICLSILEEGEDVRRLPCMHLFHQVCVDQWLITNKKCPICRVDIEAQLPSES
notes: human Arkadia (RNF111), residues 927-994, 68 aa; also called wt Ark RING; source: expressed and purified as described elsewhere [31]
B5: UbcH13 (UBE2N) (enzyme, human)
chain: MAGLPRRIIKETQRLLAEPVPGIKAEPDESNARYFHVVIAGPQDSPFEGGTFKLELFLPEEYPMAAPKVRFMTKIYHPNVDKLGRICLDILKDKWSPALQIRTVLLSIQALLSAPNPDDPLANDVAEQWKTNEAQAIETARAWTRLYAMNNI
notes: human UbcH13 (UBE2N), E2 ubiquitin-conjugating enzyme; also called UbcH13 E2 enzyme

Experiments:
Test in all cases: ITC; 1-3 mM E2 in the syringe injected (2 uL, 15-19 injections) into 100-300 uM Arkadia polypeptide in the cell; 25 °C; 50 mM KH2PO4, 50 mM K2HPO4 pH 7; single-site model
Conditions in all cases: both partners purified
UbcH5B (UBE2D2) = target: T1, UbcH5B (UBE2D2) (human, UniProt P62837 1-147)
T1 construct: His6-tag cleaved with thrombin; also called wt UbcH5B; wt E2

UbcH13 (UBE2N) = target: B5
UbcH7 (UBE2L3) = target: T2, UbcH7 (UBE2L3) (human, UniProt P68036 1-154)
T2 construct: human UbcH7 (UBE2L3), E2 ubiquitin-conjugating enzyme; also called wt UbcH7; source: expressed and purified as described elsewhere [21,32]

UbcH7 K96S = target: T3, UbcH7 K96S (human, UniProt P68036 1-154, K96S)
T3 construct: human UbcH7 (UBE2L3) with K96S (KPA motif changed to SPA); also called mutant UbcH7; source: site-directed mutagenesis; expressed and purified as the wild type

[1] = target: B4
[2] = target: B1

B1
Kd (UbcH5B (UBE2D2)): 2.7 ± 0.5 µM
Kd (UbcH13 (UBE2N)): 51.9 ± 5 µM
Kd (UbcH7 (UBE2L3)): 4.3 ± 0.5 µM

B2
Kd (UbcH5B (UBE2D2)): 8.4 ± 0.4 µM

B3
Kd (UbcH5B (UBE2D2)): 5.5 ± 0.6 µM

B4
Kd (UbcH13 (UBE2N)): 264 ± 46 µM
Kd (UbcH7 K96S): 10.2 ± 0.6 µM
Kd (UbcH7 (UBE2L3)): 27.3 ± 2 µM

B5
dH [1]: 3.4 kcal/mol
stoichiometry N [1]: 1.1
dH [2]: -2.3 kcal/mol
stoichiometry N [2]: 0.9
